Measured values: patent EP4624492A1 (Shanghai Hongcheng Biopharmaceutical Co., Ltd., dated 2025)
Like-named read-outs stand apart in the source and are kept apart here.

Assays:
[1] = molecular target: T1, human CCR8 (human, UniProt P51685 1-355); experiment: flow cytometry, competition with 10 nM AF647-human CCL1 on 293F-hCCR8 cells
T1 construct: whole, on cells; the cell line is named under assay; also called hCCR8

[2] = molecular target: T1, human CCR8; experiment: cell-based or functional assay
[3] = molecular target: T1, human CCR8; experiment: cell-based or functional assay; remark: listed apart in the source
[4] = molecular target: T1, human CCR8; experiment: flow cytometry on 293F-hCCR8 cells
[5] = molecular target: T1, human CCR8; experiment: cell-based or functional assay; remark: listed apart in the source
[6] = molecular target: T1, human CCR8; experiment: cell-based or functional assay; remark: listed apart in the source

T1 sequence (P51685 whole entry): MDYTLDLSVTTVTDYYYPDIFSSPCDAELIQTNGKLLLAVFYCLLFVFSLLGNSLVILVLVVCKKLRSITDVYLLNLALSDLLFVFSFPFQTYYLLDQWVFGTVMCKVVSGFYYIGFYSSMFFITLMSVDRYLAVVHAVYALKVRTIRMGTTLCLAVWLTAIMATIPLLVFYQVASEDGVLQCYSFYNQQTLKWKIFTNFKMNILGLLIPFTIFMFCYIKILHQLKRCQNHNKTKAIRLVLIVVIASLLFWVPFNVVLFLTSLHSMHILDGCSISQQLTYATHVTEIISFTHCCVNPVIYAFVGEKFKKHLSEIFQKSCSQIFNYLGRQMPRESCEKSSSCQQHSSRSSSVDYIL

IC50 [1]	IC50 of blockade of CCL1-induced β-arrestin recruitment [2]	EC50 of activation of Jurkat-human FcγRIIIa(158V)-NFAT with 293F-hCCR8 target cells [3]	EC50 [4]	EC50 of activation of Jurkat-human FcγRIIIa(158V)-NFAT with 293F-hCCR8 target cells [5]	EC50 of activation of Jurkat-human FcγRIIIa(158V)-NFAT with 293F-hCCR8 target cells [6]	Binder
0.0878 µg/mL	1.38 µg/mL	–	0.129 µg/mL	–	0.0264 µg/mL	563E10E12_hzH5L1_hIgG1 (antibody, Humanized, hIgG1/K) heavy: not shown light: DVVMTQSPLSLPVTPGEPASISCRSSKSLLHSNGITYLFWYLQKPGQSPQLLIYQMSNLASGVPDRFSGSGSGTDFTLKISRVEAEDVGVYYCAQSLELPLTFGGGTKVEIKRTVAAPSVFIFPPSDEQLKSGTASVVCLLNNFYPREAKVQWKVDNALQSGNSQESVTEQDSKDSTYSLSSTLTLSKADYEKHKVYACEVTHQGLSSPVTKSFNRGEC
0.0458 µg/mL	2.1 µg/mL	–	0.116 µg/mL	–	0.0259 µg/mL	563E10E12_hzH4L1_hIgG1 (antibody, Humanized, hIgG1/K) heavy: not shown light: DVVMTQSPLSLPVTPGEPASISCRSSKSLLHSNGITYLFWYLQKPGQSPQLLIYQMSNLASGVPDRFSGSGSGTDFTLKISRVEAEDVGVYYCAQSLELPLTFGGGTKVEIKRTVAAPSVFIFPPSDEQLKSGTASVVCLLNNFYPREAKVQWKVDNALQSGNSQESVTEQDSKDSTYSLSSTLTLSKADYEKHKVYACEVTHQGLSSPVTKSFNRGEC
0.0544 µg/mL	1.49 µg/mL	–	0.102 µg/mL	–	0.0388 µg/mL	563E10E12_hzH4L0_hIgG1 (antibody, Humanized, hIgG1/K) heavy: not shown light: DIVMTQSPLSLPVTPGEPASISCRSSKSLLHSNGITYLFWYLQKPGQSPQLLIYQMSNLASGVPDRFSGSGSGTDFTLKISRVEAEDVGVYYCAQSLELPLTFGGGTKVEIKRTVAAPSVFIFPPSDEQLKSGTASVVCLLNNFYPREAKVQWKVDNALQSGNSQESVTEQDSKDSTYSLSSTLTLSKADYEKHKVYACEVTHQGLSSPVTKSFNRGEC
0.0851 µg/mL	1.7 µg/mL	–	0.13 µg/mL	–	0.0355 µg/mL	563E10E12_hzH5L0_hIgG1 (antibody, Humanized, hIgG1/K) heavy: not shown light: DIVMTQSPLSLPVTPGEPASISCRSSKSLLHSNGITYLFWYLQKPGQSPQLLIYQMSNLASGVPDRFSGSGSGTDFTLKISRVEAEDVGVYYCAQSLELPLTFGGGTKVEIKRTVAAPSVFIFPPSDEQLKSGTASVVCLLNNFYPREAKVQWKVDNALQSGNSQESVTEQDSKDSTYSLSSTLTLSKADYEKHKVYACEVTHQGLSSPVTKSFNRGEC

The remaining lines, values behind:

Binder	IC50 [1]	IC50 of blockade of CCL1-induced β-arrestin recruitment [2]	EC50 of activation of Jurkat-human FcγRIIIa(158V)-NFAT with 293F-hCCR8 target cells [3]	EC50 [4]	EC50 of activation of Jurkat-human FcγRIIIa(158V)-NFAT with 293F-hCCR8 target cells [5]	EC50 of activation of Jurkat-human FcγRIIIa(158V)-NFAT with 293F-hCCR8 target cells [6]
559E1B10_hzH2L1_hIgG1 (antibody, Humanized, hIgG1/K) heavy: not shown light: EIVLTQSPATLSLSPGERATLSCRASQSISDYLHWYQQKPGQAPRLLLKYVSQSISGIPARFSGSGSGTDFTLTISSLEPEDFAVYYCQNGHSFPLTFGGGTKVEIKRTVAAPSVFIFPPSDEQLKSGTASVVCLLNNFYPREAKVQWKVDNALQSGNSQESVTEQDSKDSTYSLSSTLTLSKADYEKHKVYACEVTHQGLSSPVTKSFNRGEC	0.102 µg/mL	46.5 µg/mL	0.0292 µg/mL	0.141 µg/mL	–	–
559E1B10_hzH1L1_DE (antibody, human IgG1, kappa) heavy: not shown light: EIVLTQSPATLSLSPGERATLSCRASQSISDYLHWYQQKPGQAPRLLLKYVSQSISGIPARFSGSGSGTDFTLTISSLEPEDFAVYYCQNGHSFPLTFGGGTKVEIKRTVAAPSVFIFPPSDEQLKSGTASVVCLLNNFYPREAKVQWKVDNALQSGNSQESVTEQDSKDSTYSLSSTLTLSKADYEKHKVYACEVTHQGLSSPVTKSFNRGEC	–	–	–	–	0.0006 µg/mL	–
559E1B10_hzH1L1_VLPLL (antibody, human IgG1, kappa) heavy: QVQLVQSGAEVKKPGASVKVSCKASGYTFTDYYVNWVRQAPGQGLEWMGVINPHNGDTRYNQKFKGRVTMTVDKSTSTVYMELSSLRSEDTAVYYCASWLRRGYYFDSWGQGTTVTVSSASTKGPSVFPLAPSSKSTSGGTAALGCLVKDYFPEPVTVSWNSGALTSGVHTFPAVLQSSGLYSLSSVVTVPSSSLGTQTYICNVNHKPSNTKVDKKVEPKSCDKTHTCPPCPAPELVGGPSVFLLPPKPKDTLMISRTPEVTCVVVDVSHEDPEVKFNWYVDGVEVHNAKTKPPEEQYNSTLRVVSVLTVLHQDWLNGKEYKCKVSNKALPAPIEKTISKAKGQPREPQVYTLPPSRDELTKNQVSLTCLVKGFYPSDIAVEWESNGQPENNYKTTPLVLDSDGSFFLYSKLTVDKSRWQQGNVFSCSVMHEALHNHYTQKSLSLSPGK light: EIVLTQSPATLSLSPGERATLSCRASQSISDYLHWYQQKPGQAPRLLLKYVSQSISGIPARFSGSGSGTDFTLTISSLEPEDFAVYYCQNGHSFPLTFGGGTKVEIKRTVAAPSVFIFPPSDEQLKSGTASVVCLLNNFYPREAKVQWKVDNALQSGNSQESVTEQDSKDSTYSLSSTLTLSKADYEKHKVYACEVTHQGLSSPVTKSFNRGEC	–	–	–	–	0.0014 µg/mL	–
559E1B10_hzH3L0_hIgG1 (antibody, V domains shown, Humanized, hIgG1/K) VH: KVQLVQSGAEVKKPGASVKVSCKASGYTFTDYYVNWVRQAPGQGLEWIGVINPHNGDTRYNQKFKGKATLTVDKSTSTAYMELSSLRSEDTAVYYCASWLRRGYYFDSWGQGTTVTVSS VL: EIVLTQSPATLSLSPGERATLSCRASQSISDYLHWYQQKPGQAPRLLIYYVSQSISGIPARFSGSGSGTDFTLTISSLEPEDFAVYYCQNGHSFPLTFGGGTKVEIKR	0.443 µg/mL	–	0.0985 µg/mL	0.13 µg/mL	–	–
563E10E12_hzH3L1_hIgG1 (antibody, Humanized, hIgG1/K) heavy: not shown light: DVVMTQSPLSLPVTPGEPASISCRSSKSLLHSNGITYLFWYLQKPGQSPQLLIYQMSNLASGVPDRFSGSGSGTDFTLKISRVEAEDVGVYYCAQSLELPLTFGGGTKVEIKRTVAAPSVFIFPPSDEQLKSGTASVVCLLNNFYPREAKVQWKVDNALQSGNSQESVTEQDSKDSTYSLSSTLTLSKADYEKHKVYACEVTHQGLSSPVTKSFNRGEC	0.0732 µg/mL	1.53 µg/mL	–	0.114 µg/mL	–	0.0261 µg/mL
563E10E12_hzH1L1_DE (antibody, human IgG1, kappa) heavy: not shown light: DVVMTQSPLSLPVTPGEPASISCRSSKSLLHSNGITYLFWYLQKPGQSPQLLIYQMSNLASGVPDRFSGSGSGTDFTLKISRVEAEDVGVYYCAQSLELPLTFGGGTKVEIKRTVAAPSVFIFPPSDEQLKSGTASVVCLLNNFYPREAKVQWKVDNALQSGNSQESVTEQDSKDSTYSLSSTLTLSKADYEKHKVYACEVTHQGLSSPVTKSFNRGEC	–	–	–	–	0.0006 µg/mL	–
563E10E12_hzH1L1_VLPLL (antibody, human IgG1, kappa) heavy: EVQLVESGGGLVQPGGSLKLSCAASGFNFNAYAMNWVRQASGKGLEWVGRIRSKSNNFATYYADSVTDRFTISRDDSKNTAYLQMNSLKTEDTAVYYCVRHGRRDLLYSMDFWGQGTTVTVSSASTKGPSVFPLAPSSKSTSGGTAALGCLVKDYFPEPVTVSWNSGALTSGVHTFPAVLQSSGLYSLSSVVTVPSSSLGTQTYICNVNHKPSNTKVDKKVEPKSCDKTHTCPPCPAPELVGGPSVFLLPPKPKDTLMISRTPEVTCVVVDVSHEDPEVKFNWYVDGVEVHNAKTKPPEEQYNSTLRVVSVLTVLHQDWLNGKEYKCKVSNKALPAPIEKTISKAKGQPREPQVYTLPPSRDELTKNQVSLTCLVKGFYPSDIAVEWESNGQPENNYKTTPLVLDSDGSFFLYSKLTVDKSRWQQGNVFSCSVMHEALHNHYTQKSLSLSPGK light: DVVMTQSPLSLPVTPGEPASISCRSSKSLLHSNGITYLFWYLQKPGQSPQLLIYQMSNLASGVPDRFSGSGSGTDFTLKISRVEAEDVGVYYCAQSLELPLTFGGGTKVEIKRTVAAPSVFIFPPSDEQLKSGTASVVCLLNNFYPREAKVQWKVDNALQSGNSQESVTEQDSKDSTYSLSSTLTLSKADYEKHKVYACEVTHQGLSSPVTKSFNRGEC	–	–	–	–	0.0013 µg/mL	–
